Patent US20260008856A1, “METHODS OF TREATING DISEASE USING ANTI-IL1RAP ANTIBODIES AND ANTIBODY DRUG CONJUGATES” (Bluefin Biomedicine, Inc., priority 2022, published 2026)

Legend:
EOL-1 = assay: Flow cytometry binding to endogenous cell line EOL-1; assay type: cell-based, human; parameters: key to binding to EOL-1 by flow cytometry: (−): No binding; (+): Weak binding; (++): Moderate binding; (+++): Strong binding; conditions: primary antibody 1 ug/ml
Experimental: (§1) Staining for flow cytometry was performed in 1× cold PBS with 0.5% BSA. Primary antibodies (1 ug/ml) were incubated with live cells on ice for 30 minutes, after a brief wash, cells were incubated with Alexa Fluro® 488-conjugated anti-human IgG secondary antibody @1:1000 (709-546-149, Jackson ImmunoResearch). Acquisition of the data was performed on a MACSQuant® Flow Cytometers (Miltenyi Biotec) and analyzed with FlowJo software.
(§2) Over 1,000 hits were identified that bind strongly to CHO-human IL1RAP, but not parental CHO cells. 68 clones were selected for molecular cloning. Based on unique CDR3 sequences from the heavy chain variable domain, 35 antibodies from 13 families were confirmed by binding in IL1RAP positive cell lines EOL1 and Karpas 299 (see Table 8) by flow cytometry (MACSQuant® www.miltenybiotec.com).

Karpas 299 = assay: Flow cytometry binding to endogenous cell line Karpas 299; assay type: cell-based, human; parameters: key to binding to Karpas 299 by flow cytometry: (−): No binding; (+): Weak binding; (++): Moderate binding; (+++): Strong binding; conditions: primary antibody 1 ug/ml
Experimental: as §1, §2

MOLT3 = assay: Flow cytometry binding to endogenous cell line MOLT3; assay type: cell-based; parameters: key: (−): No binding; (+): Weak binding; (++): Moderate binding; (+++): Strong binding; conditions: primary antibody 1 ug/ml
Experimental: as §1

recombinant human IL1RAP = target: T1, recombinant human IL1RAP (Homo sapiens, UniProt Q9NPH3); assay: Binding competition binning on Octet; conditions: Protein A biosensors
T1 construct: MBP-IL1RAP(S21-T367)-; 8xHis (C); made in house; host or cells: CHO (ExpiCHO transient expression)
Experimental: Binding Competition binning: Binding competition among different antibodies was determined using a real-time, interferometry assay on an Octet Red™ instrument with Protein A-conjugated biosensors. To assess whether two antibodies competed for binding to a recombinant IL1RAP protein, the assay was performed as follows. Protein A biosensors were first submerged into wells containing 10 ug/mL of individual monoclonal antibodies for 5 minutes. Following the capture step, the biosensors were dipped briefly (15 seconds) into buffer and then any unoccupied sites on the biosensor were saturated by submerging them for 5 minutes into wells containing 100 ug/mL of an irrelevant monoclonal antibody. The Octet™ biosensors were then dipped briefly (15 seconds) in buffer before immersion for 1 minute into wells containing recombinant IL1RAP. The biosensors were dipped briefly (15 seconds) in buffer before immersion for 1 minute into wells containing a second recombinant antibody.
For the control case where the second antibody was the same as the first, there was no increase in signal, because there was no additional binding to the recombinant target.
For the control case where buffer was used instead of the first antibody, no recombinant target bound the non-quenching antibody on the biosensor and no second antibody bound the biosensor.
Selected antibodies were evaluated in pairs for their ability to simultaneously bind recombinant human IL1RAP. The analysis was performed by Octet™ loaded with Protein A Biosensors. A total of five different bins were determined as follows.

competition for binding, bin (2) (recombinant human IL1RAP) | competition for binding, bin (1) (recombinant human IL1RAP) | Molecule | binding to EOL-1 by flow cytometry (EOL-1) | binding to Karpas 299 by flow cytometry (Karpas 299) | binding to MOLT3 by flow cytometry (MOLT3)
– | – | 34D1_21B3: human anti-IL1RAP antibody, VH SEQ ID NO: 136, VL SEQ ID NO: 137 (antibody, V domains shown) VH: QGQLVESGGGVVQPGRSLRLSCAASGFTFSSYTLHWVRQAPGKGLEWVAVIWYDGSNKYYVDSVKGRFTISRDNSKNTLYLQMNSLRAEDTAVYYCAREYGSGSYYNVYYGMDVWGQGTTVTVSS VL: DIVMTQSPLSLPVTPGEPASISCRSSQSLLHSNGYKYLDWYLQKAGQSPHLLIYLGSNRASGVPDRFSGSGSGTDFTLKISRVEAEDVGFYYCMQTLQIPLTFGGGTKLEIK | (+++) | (++) | (+)
– | – | 31F9_21A1: human anti-IL1RAP antibody, VH SEQ ID NO: 118, VL SEQ ID NO: 120 (antibody, V domains shown) VH: QVQLVESGGGMVQPGRSLRLSCTASGFTFSSHGMHWVRQAPGKGLEWVAVIWFDGSNEYYVDSVKGRFTISRDNSKNTLYLQMNSLRAEDTAVYYCARENVYGSGWFFDYWGQGTLVTVSS VL: EIVMTQSPATLSVSPGERASLSCRASQSVGSNLAWYQQKPGQAPRLLIFGASTRATGIPARFSGSRSGTEFTLTISSLQSEDFALYYCQQYNNWPPWTFGQGTKVEIK | (+++) | – | (+)
– | – | 32F9_21A5: human anti-IL1RAP antibody, VH SEQ ID NO: 123, VL SEQ ID NO: 124 (antibody, V domains shown) VH: QLQLVESGGGVVQPGRSLRLSCAASGFTFSSHGMHWVRQAPGKGLEWVAVIWYDGSSEYYADSVKGRFTISRDNSKNTLYLQMNSLRAEDTAVYYCARENVYGSGWFFDYWGQGSLVTVSS VL: EIVMTQSPATLSVSPGERASLSCRASQSVGSNLAWYQQKPGQAPRLLIFGASTRATGIPARFSGSRSGTEFTLTISSLQSEDFALYYCQQYNNWPPWTFGQGTKLEIK | (+++) | – | (+)
– | – | 33E9_21A6: human anti-IL1RAP antibody, VH SEQ ID NO: 125, VL SEQ ID NO: 126 (antibody, V domains shown) VH: QLQLVESGGGVVQFGRSLRLSCAASGFTFSSHGMHWVRQAPGKGLEWVAVIWYDGSSEYYADSVKGRFTISRDNSKNTLYLQMNSLRAEDTAVYYCARENVYGSGWFFDYWGQGTLVTVSS VL: EIVMTQSPATLSVSPGERASLSCRASQSVGSNLAWYQQKPGQAPRLLIFGASTRATGIPARFSGSRSGTEFTLTISSLQSEDFALYYCQQYNNWPPWTFGQGTKLEIK | (+++) | – | (+)
– | – | 32D4_21D6: human anti-IL1RAP antibody, VH SEQ ID NO: 121, VL SEQ ID NO: 122 (antibody, V domains shown) VH: QLQLVESGGGVVQPGRSLRLSCAASGFTFSSYGMHWVRQAPGKGLEWVAVIWYDGSSEYYADSVKGRFTISRDNSKNTLYLQMNSLRAEDTAVYYCARENVYGSGWFFDYWGQGTLVTVSS VL: EIVMTQSPATLSVSPGERASLSCRASQSVGSNLAWYQQKPGQAPRLLIFGASTRATGIPARFSGSRSGTEFTLTISSLQSEDFALYYCQQYNNWPPWTFGQGTKVEIK | (+++) | – | (+)
– | – | 35D11_22A1: human anti-IL1RAP antibody, VH SEQ ID NO: 127, VL SEQ ID NO: 128 (antibody, V domains shown) VH: QLQLVESGGGVVQPGRSLRLSCAASGFTFSSYGMHWVRQAPGKGLEWVAVIWYDGSSEYYADSVKGRFTISRDNSKNTLFLQMNSLRADDTAVYYCARENVYGSGWFFDYWGQGTLVTVSS VL: EIVMTQSPATLSVSPGERASLSCRASQSVGSNLAWYQQKPGQAPRLLIFGASTRATGIPARFSGSRSGTEFTLTISSLQSEDFALYYCQQYDNWPPWTFGQGTKLEIK | (+++) | – | (+)
competed with each other | – | 10C8_15A1: human anti-IL1RAP antibody, VH SEQ ID NO: 9, VL SEQ ID NO: 13 (antibody, V domains shown) VH: QVQLVESGGGVVQPGRSLRISCAASGFTFRSYGMHWVRQAPGKGLEWVAIIWHDESYKYYVDSVKGRFTISRDNSKNTLYLQMNSLRAEDTAVYYCARGDYYGSGSYYDAFDIWGQGTMVTVSS VL: DIQMTQSPSSLSASVGDRVIITCRASQGISNYLAWFQQKPGKCPNLLIYAASTLRSGVPSRFSGSGSGTDFTLTISSLQPEDVATYYCQKYNSAPYTFGQGTKVEIK | (+++) | – | (−)
– | – | 34H8_21B4: human anti-IL1RAP antibody, VH SEQ ID NO: 185, VL SEQ ID NO: 189 (antibody, V domains shown) VH: QVQLQESGPGLVKPSETLSLTCAVSGYSASGLYYWAWIRQPPGKGLEWIGNIYHSGRTYYNPSLESRVSISLDTSKHQVSLKLKSVTYADTAVYFCARDRFDGFDIWGQGTMVTVSS VL: EIVMTQSPATLSVSPGERATLSCRASQTINNILAWYQQKPGQAPRLLIYGASTRATGIPARFSGSGSGTEFTLTISSLQSEDFAVYYCQQYNNWPLTFGGGTKLEIK | (+++) | – | (+)
– | competed with each other | 38E10_21C3: human anti-IL1RAP antibody, VH SEQ ID NO: 74, VL SEQ ID NO: 78 (antibody, V domains shown) VH: EVQLLESGGGLVQPGGSLRLSCAASGFTFSNYAMTWVRQAPGKGLEWVSSISISRAGTYYADSVKGRFTISRDNSKNTLNLQMNSLRAEDTAEYYCAREYYYGMDVWGQGTTVTVSS VL: EIVLTQSPATLSLSPGERATLSCRASQSVSSYLAWYQQKPGQTPRLLIYDASNRATGIPARFSGSGSGTDFTLTISSLETEDFAVYYCQQLINWPLTFGGGTKLEIK | (+++) | – | (+)
competed with each other | – | 32C12_21A4: human anti-IL1RAP antibody, VH SEQ ID NO: 32, VL SEQ ID NO: 36 (antibody, V domains shown) VH: QVQLVESGGGVVQPGRSLRLSCAASGFTFRNYGIHWVRQAPGKGLEWVAVIWYDGSNKFYADSVKGRFTISRDNSKNTLYLQMNSLRVEDTAVYYCAREEGIAVAPFDYWGQGTLVTVSS VL: DIQMTQSPSSLSASVGDRVAITCRANQSIASYLNWYQQKPGKAPKLLIYGASSLQNGVPSRFSGSGSRTDFTLTISSLQPEDFATYYCQQSYSTEITFGQGTRLEIK | (+++) | – | (+)
– | – | 41G4_15B6: human anti-IL1RAP antibody, VH SEQ ID NO: 116, VL SEQ ID NO: 36 (antibody, V domains shown) VH: QVQLVESGGGVVQPGRSLRLSCAASGFTFRNYGMHWVRQAPGKGLEWVAVIWYDGSNKFYADSVKGRFTISRDNSKNTLYLQMNSLRVEDTAVYYCAREEGIAVAPFDYWGQGTLVTVSS VL: DIQMTQSPSSLSASVGDRVAITCRANQSIASYLNWYQQKPGKAPKLLIYGASSLQNGVPSRFSGSGSRTDFTLTISSLQPEDFATYYCQQSYSTEITFGQGTRLEIK | (+++) | – | –
